Assay results published in patent US20260317426 (published 2026).

How the values were obtained:
[1] = target: T1, MICB*004 ECD (human, UniProt Q29980); test: BLI, monovalent
T1 chain: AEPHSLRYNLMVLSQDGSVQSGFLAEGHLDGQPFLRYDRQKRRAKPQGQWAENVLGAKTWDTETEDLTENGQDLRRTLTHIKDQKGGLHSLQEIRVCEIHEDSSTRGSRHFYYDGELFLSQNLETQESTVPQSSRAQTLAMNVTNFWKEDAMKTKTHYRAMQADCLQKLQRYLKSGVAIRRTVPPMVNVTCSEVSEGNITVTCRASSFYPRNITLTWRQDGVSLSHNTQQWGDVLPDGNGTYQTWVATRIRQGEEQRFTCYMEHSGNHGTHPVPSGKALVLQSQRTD

[2] = target: T2, MICA ECD (alleles *001, *002, *004, *008) (human, UniProt Q29983); test: BLI, monovalent, lowest of MICA alleles
T2 chain: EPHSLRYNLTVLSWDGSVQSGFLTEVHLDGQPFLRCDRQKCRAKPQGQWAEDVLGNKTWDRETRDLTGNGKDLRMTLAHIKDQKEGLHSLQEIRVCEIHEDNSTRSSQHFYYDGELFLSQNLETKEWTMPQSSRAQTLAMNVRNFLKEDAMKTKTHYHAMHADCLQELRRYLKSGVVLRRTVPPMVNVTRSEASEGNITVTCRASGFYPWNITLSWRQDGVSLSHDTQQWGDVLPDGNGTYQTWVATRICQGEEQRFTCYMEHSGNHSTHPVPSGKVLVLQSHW

- Kd [1]: 11.4 nM
- Kd [2]: 0.77 nM
B1: CLN-619 (3F9H1L3L) (antibody, V domains shown)
VH: QVQLVESGGGLVKPGGSLRLSCAASGFTFSNYAMSWIRQAPGKGLEWVSYISPGGDYIYYADSVKGRFTISRDNAKNSLYLQMNSLRAEDTAVYYCTTDRRHYGSYAMDYWGQGTLVTVSS
VL: DIVMTQSPLSLPVTPGEPASISCRSSKSLLHSNLNTYLYWFLQKPGQSPQILIYRMSNLASGVPDRFSGSGSGTAFTLKISRVEAEDVGVYYCMQHLEYPFTFGPGTKLEIKR
